Reference: patent US6946130 (GlaxoSmithKline, dated 2005)

Tests used:
[1] = biological target: T1, human interleukin 5 (recombinant human IL-5, expressed in Drosophila Schneider 2 cells) (human, UniProt P05113 20-134); experiment: optical biosensor
T1 construct: also called hIL-5

[2] = biological target: T1, human interleukin 5 (recombinant human …); experiment: IL-5R alpha binding inhibition assay (125I-IL-5, Drosophila membranes)
Protocol: Assays with *Drosophila* membranes containing receptor were performed in MultiscreenGV™ plates (Millipore Corp., Bedford, Mass.) using *Drosophila* tissue culture medium M3 (Lindquist et al., *Drosophila Inf. Serv.*, 58: 163 (1982)) containing 25 mM HEPES buffer pH 7.2 and 0.1% BSA (Binding Buffer). Wells were pre-blocked with 0.1 ml binding buffer. […] After 20 minutes incubation at room temperature, 25 ul of the membrane extract of *Drosophila* S2 cells expressing the α-chain of the human IL5R was added to the wells. After 1 hour further incubation the membranes were collected by vacuum filtration and washed 3× with binding buffer. Filters were dried and counted.
The Fd and κ cDNAs of mAb (2B6) were isolated by PCR using the conditions described above. The gel-purified fragments were subcloned into the pMKFabGene3 vector which had been modified to include the hexa-His sequence 3' of the gene III cDNA, resulting in the plasmid pMKFabGene3H. A functional, IL-5 binding Fab clone containing the 2B6 heavy and light chains was identified by a colony lift assay. Upon removal gene III via Nhe I/SpeI I digestion and self-ligation the heavy chain was fused in frame to the hexa-His, allowing purification as described above.

B1: recombinant Fab containing the 2B6 heavy and light chains (Fd fused to hexa-His) (Fab)
heavy (part 1 of 2): QVQLKESGPGLVAPSQSLSITCTVSGFSLTSYSVHWVRQPPGKGLEWLGVIWASGGTDYNSALMSRLSISKDNSKSQVFLKLNSLQTDDTAMYYCARDPPSSLLRLDYWGQGTTLTVSS
heavy (part 2 of 2): HHHHHH
light: DIVMTQSPSSLSVSAGEKVTMSCKSSQSLLNSGNQKNYLAWYQQKPGQPPKLLIYGASTRESGVPDRFTGSGSGTDFTLSISSVQAEDLAVYYCQNVHSFPFTFGSGTELEIK
notes: Expressed in E. coli from pMKFabGene3H after removal of gene III; also called Fab fragment from 2B6; 2B6 Fab; not shown: murine CH1 (rest of the 2B6 Fd); murine kappa constant region
Kd [1]: ~0.09 nM | IC50 [2]: ~7.5 µg/mL
